Residue numbers refer to the chain shown, from its start. In names and notes the source's numbering stands.

We go through 3 molecules from patent US20260015426A1 (23ANDME, published 2026).

Test [1] has as its target T1, hu-M-IL1RAP construct, positions S21-T367 (extracellular domain of the membrane form of human IL1RAP) (human, UniProt Q9NPH3 21-367).
T1 construct: Biotinylated when captured on the Biacore chip
T1 sequence: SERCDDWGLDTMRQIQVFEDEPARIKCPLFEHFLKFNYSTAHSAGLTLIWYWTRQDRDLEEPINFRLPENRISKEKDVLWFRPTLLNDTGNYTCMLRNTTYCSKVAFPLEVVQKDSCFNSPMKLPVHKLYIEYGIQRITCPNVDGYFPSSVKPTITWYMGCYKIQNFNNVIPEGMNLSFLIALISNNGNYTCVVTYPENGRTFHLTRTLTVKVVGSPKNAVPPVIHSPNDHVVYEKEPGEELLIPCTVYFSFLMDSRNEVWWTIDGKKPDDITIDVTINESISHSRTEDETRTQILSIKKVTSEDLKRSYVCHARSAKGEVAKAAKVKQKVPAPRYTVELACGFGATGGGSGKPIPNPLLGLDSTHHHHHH
Kind of test: SPR, Fab analyte. For orientation: Surface plasmon resonance follows binding to a sensor surface in real time, without labels.
Method: (§1) Surface plasmon resonance (SPR) analysis was used to determine binding affinity for hu-M-IL1RAP of the purified Fabs containing the selected single, double, and triple mutations in either the VL or VH regions using a BIACORE™ 8K instrument. […] For kinetics measurements, 5 nM biotinylated hu-M-IL1RAP was captured at 10 μL/min to achieve ˜50 response units in the second flow cell (FC2). FC1 was kept as a reference. […] The sensorgrams were recorded and subjected to reference and buffer subtraction before data analysis with the BIACORE® 8K Evaluation Software (version 1.1.1.7442). Association rates (kₒₙ) and dissociation rates (koff) were calculated using a simple one-to-one Langmuir binding model. The equilibrium dissociation constant (KD) was calculated as the ratio of koff/kₒₙ.

For test [2], the target named is T1, hu-M-IL1RAP construct, positions …. Kind of test: SPR, Fab analyte, 25 C.
Method: as §1
Test [3] has the same target. Kind of test: SPR, Fab analyte, 37 C.
Method: as §1
Test [4] has as its target T2, human IL1RAP (hu-IL1RAP) on human cells (human, UniProt Q9NPH3 21-570).
T2 sequence: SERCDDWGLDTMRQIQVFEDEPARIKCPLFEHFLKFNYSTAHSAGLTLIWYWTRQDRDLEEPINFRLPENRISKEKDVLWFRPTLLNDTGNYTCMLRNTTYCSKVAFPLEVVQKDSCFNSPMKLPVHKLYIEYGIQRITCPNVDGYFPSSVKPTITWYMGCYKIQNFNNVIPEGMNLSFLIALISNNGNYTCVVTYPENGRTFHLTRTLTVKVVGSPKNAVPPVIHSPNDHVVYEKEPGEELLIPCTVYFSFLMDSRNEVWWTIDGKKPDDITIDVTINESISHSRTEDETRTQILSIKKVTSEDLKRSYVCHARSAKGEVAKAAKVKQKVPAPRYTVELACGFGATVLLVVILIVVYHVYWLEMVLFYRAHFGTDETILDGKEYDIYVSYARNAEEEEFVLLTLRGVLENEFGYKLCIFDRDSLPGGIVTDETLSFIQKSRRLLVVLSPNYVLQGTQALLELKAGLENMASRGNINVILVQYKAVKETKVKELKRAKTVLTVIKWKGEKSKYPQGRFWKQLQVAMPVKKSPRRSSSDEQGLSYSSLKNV
Kind of test: cell-based or functional assay.

Test [5] concerns the target T1, hu-M-IL1RAP construct, positions …. Kind of test: ELISA, purified mAb.
Method: (§2) After removing the coating solution, unspecific binding was blocked by adding 200 μL of assay/blocking solution containing 1% bovine serum albumin (BSA) in phosphate buffered saline (PBS) pH 7.4 (ELISA diluent) and incubation at room temperature for one hour with agitation or overnight at 4° C. without agitation. Plates were then washed three times with 300 μL of PBS, 0.05% TWEEN®-20 (wash buffer). 100 μL of culture supernatant from individual hybridoma clones (or purified antibodies at the indicated concentration) was added to individual wells followed by incubation at room temperature for one hour with agitation. […] The plate was incubated at room temperature for one hour with agitation, washed six times with wash buffer and developed for 3-10 minutes by adding 50 μL/well of tetramethylbenzidine (TMB) microwell peroxidase substrate (Scytek Laboratories, Inc., Logan, UT, USA; catalogue number TM1999).
Test [6] concerns the target T3, hu-S-IL1RAP construct, positions S21-Q356 (soluble human IL1RAP) (human, UniProt Q9NPH3 21-350).
T3 sequence: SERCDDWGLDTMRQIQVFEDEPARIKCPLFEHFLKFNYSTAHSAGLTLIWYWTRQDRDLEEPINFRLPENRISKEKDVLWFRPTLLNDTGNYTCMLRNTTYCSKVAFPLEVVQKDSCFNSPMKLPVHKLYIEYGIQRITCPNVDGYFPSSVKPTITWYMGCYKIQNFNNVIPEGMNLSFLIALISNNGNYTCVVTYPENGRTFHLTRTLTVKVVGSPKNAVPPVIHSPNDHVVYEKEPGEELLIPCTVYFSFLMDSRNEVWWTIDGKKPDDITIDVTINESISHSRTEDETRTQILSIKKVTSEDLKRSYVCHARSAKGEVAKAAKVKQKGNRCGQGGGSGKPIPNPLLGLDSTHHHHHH
Kind of test: ELISA, purified mAb. A general note: An ELISA detects its analyte on a solid surface through an enzyme-linked reagent.
Method: as §2

The target of test [7] is T4, cyno-M-IL1RAP construct, positions S21-T367 (cynomolgus monkey, UniProt P59822 21-367 (rhesus entry)).
T4 construct: Biotinylated when captured on the Biacore chip; also called cy-M-IL1RAP
T4 sequence: T1 sequence with L183F, T273P, K326T
Kind of test: ELISA, purified mAb.
Method: as §2

Test [8] deals with T5, mu-M-IL1RAP construct, positions S21-T367 (mouse, UniProt Q61730 21-367).
T5 construct: also called mo-M-IL1RAP; mouse-M-IL1RAP
T5 sequence: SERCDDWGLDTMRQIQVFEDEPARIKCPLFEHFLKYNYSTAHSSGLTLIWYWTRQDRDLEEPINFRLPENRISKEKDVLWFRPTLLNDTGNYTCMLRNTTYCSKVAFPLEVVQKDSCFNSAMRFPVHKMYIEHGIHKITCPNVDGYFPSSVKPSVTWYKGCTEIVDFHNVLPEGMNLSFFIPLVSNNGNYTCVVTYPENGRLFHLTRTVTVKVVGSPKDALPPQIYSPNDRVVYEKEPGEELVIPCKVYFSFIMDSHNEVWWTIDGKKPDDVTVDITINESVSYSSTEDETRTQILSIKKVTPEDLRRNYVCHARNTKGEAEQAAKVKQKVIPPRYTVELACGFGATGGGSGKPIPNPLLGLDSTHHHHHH
Kind of test: ELISA, purified mAb.
Method: as §2

Test [9] deals with T1, hu-M-IL1RAP construct, positions …. Kind of test: ELISA, mAb at 10 nM.
Method: as §2
(§3) Binding domain mapping: Binding domain mapping of the 15 purified antibodies was carried out using the above-described ELISA assay with the following IL1RAP polypeptide constructs coated at 1 μg/ml on the assay plates: hu-M-IL1RAP, hu-M-IL1RAP-D1, hu-M-IL1RAP-D1D2, and hu-M-IL1RAP-D3.
The target in test [10] is T6, hu-M-IL1RAP-D1D2 construct, positions S21-P237 (human).
T6 chain: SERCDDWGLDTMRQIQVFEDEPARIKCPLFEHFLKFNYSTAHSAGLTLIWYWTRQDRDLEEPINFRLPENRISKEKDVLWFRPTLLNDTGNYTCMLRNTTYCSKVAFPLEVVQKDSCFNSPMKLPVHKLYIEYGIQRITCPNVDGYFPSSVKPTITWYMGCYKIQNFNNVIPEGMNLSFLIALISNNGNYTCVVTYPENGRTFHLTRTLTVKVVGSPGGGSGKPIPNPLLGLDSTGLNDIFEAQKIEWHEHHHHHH
Kind of test: ELISA, mAb at 10 nM.
Method: as §2, §3

In test [11] the target is T2, human IL1RAP (hu-IL1RAP) on human cells. Kind of test: cell-based or functional assay. This is another data set of the same source.
Test [12] has the same target. Kind of test: cell-based or functional assay. This is another data set of the same source.
For test [13], the target named is T1, hu-M-IL1RAP construct, positions …. Kind of test: ELISA, hybridoma supernatant.
Method: as §2

B1: K13 Fab (VL A51Y/W92I) (Fab, V domains shown)
VH: EVQLVESGGGLVQPGGSLRLSCAASGFTFSNYAMSWVRQAPGKGLEWVATVTEGGDYNYYLDDVKGRFTISRDNAKNSLYLQMNSLRAEDTAVYYCARDRWPYFFDYWGQGTLVTVSS
VL: DIQMTQSPSSLSASVGDRVTITCRASENIYSNLAWYQQKPGKSPKLLVYGYKNLADGVPSRFSGSGSGTDYTLTISSLQPEDFATYYCQHFITTPRTFGGGTKVEIK
notes: Fab with 8xHis tag
Regarding B1, the “fold improvement of affinity over the parental Fab” value in [1] was 9 fold. Further, in test [2], the affinity, expressed as Kd, was 0.00709 nM; the koff (commonly the first-order rate constant of dissociation) was 4.36e-05 s⁻¹; the kon (in general, the rate constant with which the complex forms) came to 6.15e+06 M⁻¹ s⁻¹. Moreover, in [3], the dissociation constant Kd (usually the concentration at which binding is half-saturated) was 0.0293 nM, the koff came to 0.000117 s⁻¹ and the kon came to 4.01e+06 M⁻¹ s⁻¹. In test [4], the “HEK-Blue, IL-1β, % inhibition at 100 nM (Fab)” value was determined as 100%; the “HEK-Blue, IL-1β, IC50 (Fab)” value amounted to 0.94 nM; the “HEK-Blue, IL-33, % inhibition at 100 nM (Fab)” value was found to be 98%; the “HEK-Blue, IL-33, IC50 (Fab)” value worked out at 3.17 nM. Further, in test [4], the “HEK-Blue, IL-36α, % inhibition at 100 nM (Fab)” value came to 100% and the “HEK-Blue, IL-36α, IC50 (Fab)” value stood at 0.884 nM.

B2: 9D5 (purified mAb from hybridoma 9D5) (antibody, V domains shown)
VH: QVQLQQSGAELARPGASVKFSCKASGYTFTSYWMQWVKQRPGQGLEWIGTIYPGDGNTRYTQKFKGKATLTADKSSSTAYMQLSGLASEDSAVYYCARGYFGNLVFDVWGAGTTVTVSS
VL: DIKMTQSPSSMYASLGERVTITCKASQDINTYLSWFLQKPGKSPKTLIYRADRLVDGVPSRFSGGGSGQDYSLTISSLEYEDLGIYYCLQYDEFPYTFGSGTKLEIK
notes: Mouse hybridoma mAb
B2: the EC50 (commonly the concentration needed to bring the measured effect to its halfway point) in test [5] was 0.039 nM; in [6], 0.036 nM; in test [7], 0.043 nM. Also, in [8], the binding result was “no binding (tested: 20 nM (highest tested))”. Further, the A450 was 1.14 A450 in test [9], 0.957 A450 in [10] and 1.05 A450 in [13]. The “HEK-Blue SEAP, IL-1β, % inhibition (supernatant)” value in [11] stood at 40%. In addition, the “HEK-Blue SEAP, IL-33, % inhibition (supernatant)” value in test [11] was 18%. In addition, the “HEK-Blue, IL-1β, % inhibition at 100 nM” value in [12] was 86%. The “HEK-Blue, IL-33, % inhibition at 100 nM” value in [12] is 46%.

B3: 8H1 (purified mAb from hybridoma 8H1) (antibody, V domains shown)
VH: QVQLQQSGPELVKSGASVRISCKASGYAFSGSWMNWVKQRPGKGLEWIGRIYPGDGNTNYNGKFKDKATLTADKSSSTAFMQLSSLTSEDSAVYFCARDYYLFYFDYWGQGTTLTVSS
VL: NIVMTQTPKFLPVAAEDRVIITCKASQDVSNEVAWYQQKPGQSPKLLMYYASNRYTGVPDRFTGSGSGTDFTFTISSVQVEDLAVYFCQQHYSSPLTFGAGTKLELK
notes: Mouse hybridoma mAb
Consider B3, for which the EC50 was found to be 0.262 nM in [5], 0.186 nM in [6] and 0.257 nM in test [7]. In addition, the binding result in [8] is “no binding (tested: 20 nM (highest tested))”. Also, the A450 in test [9] amounted to 1.09 A450; in test [10], 0.602 A450; in test [13] it was 0.987 A450. Moreover, in [11], the “HEK-Blue SEAP, IL-1β, % inhibition (supernatant)” value came out at 45%. In addition, the “HEK-Blue SEAP, IL-33, % inhibition (supernatant)” value in test [11] came out at 26%. Also, the “HEK-Blue, IL-1β, % inhibition at 100 nM” value in test [12] is 64%. For the same molecule, in [12], the “HEK-Blue, IL-33, % inhibition at 100 nM” value worked out at 27%.
